According to paper PMC5393055 (Genes & Development, 2017):

Biological target: T1, full-length GST-SUUR (Drosophila, UniProt Q9VTE2 1-962)
T1 sequence (looked up): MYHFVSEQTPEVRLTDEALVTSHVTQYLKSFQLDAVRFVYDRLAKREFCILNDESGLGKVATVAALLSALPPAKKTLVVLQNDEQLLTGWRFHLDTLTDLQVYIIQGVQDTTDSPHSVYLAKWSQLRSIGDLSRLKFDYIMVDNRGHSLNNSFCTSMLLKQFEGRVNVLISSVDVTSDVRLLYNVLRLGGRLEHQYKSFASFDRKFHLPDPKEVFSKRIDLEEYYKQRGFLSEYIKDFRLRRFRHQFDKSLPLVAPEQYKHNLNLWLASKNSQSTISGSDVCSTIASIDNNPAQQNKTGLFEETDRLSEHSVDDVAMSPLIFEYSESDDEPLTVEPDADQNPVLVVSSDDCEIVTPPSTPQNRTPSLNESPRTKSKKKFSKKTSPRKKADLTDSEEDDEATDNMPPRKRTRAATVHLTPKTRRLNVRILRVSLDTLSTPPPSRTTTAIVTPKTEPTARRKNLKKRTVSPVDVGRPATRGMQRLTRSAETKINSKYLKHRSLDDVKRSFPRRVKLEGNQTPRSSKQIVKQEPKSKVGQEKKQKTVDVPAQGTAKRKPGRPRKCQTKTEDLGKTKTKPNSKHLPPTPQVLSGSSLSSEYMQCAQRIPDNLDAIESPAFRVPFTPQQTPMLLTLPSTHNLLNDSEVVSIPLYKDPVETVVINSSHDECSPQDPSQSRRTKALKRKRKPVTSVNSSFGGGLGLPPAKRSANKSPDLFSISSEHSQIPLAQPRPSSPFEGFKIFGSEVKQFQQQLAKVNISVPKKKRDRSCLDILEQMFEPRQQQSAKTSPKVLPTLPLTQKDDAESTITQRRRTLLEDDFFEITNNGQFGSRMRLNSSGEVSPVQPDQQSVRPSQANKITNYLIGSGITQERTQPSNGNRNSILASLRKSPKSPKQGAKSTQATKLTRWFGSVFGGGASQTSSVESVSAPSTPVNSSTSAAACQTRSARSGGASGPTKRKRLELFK
Test: pull-down

B1: recombinant untagged full-length H1 (natural protein, Drosophila, UniProt P02255 1-256, looked up)
chain: MSDSAVATSASPVAAPPATVEKKVVQKKASGSAGTKAKKASATPSHPPTQQMVDASIKNLKERGGSSLLAIKKYITATYKCDAQKLAPFIKKYLKSAVVNGKLIQTKGKGASGSFKLSASAKKEKDPKAKSKVLSAEKKVQSKKVASKKIGVSSKKTAVGAADKKPKAKKAVATKKTAENKKTEKAKAKDAKKTGIIKSKPAATKAKVTAAKPKAVVAKASKAKPAVSAKPKKTVKKASVSATAKKPKAKTTAAKK
binding result: binds
